# Measurements: patent publication US20240327460A1, “NORA INHIBITORS AND METHODS OF USE” (priority 2021, published 2024)
# B1: Fab36^R134A (Fab, V domains shown)
# VH: EVQLVESGGGLVQPGGSLRLSCAASGFTFSSSSIHWVRQAPGKGLEWVASISSSSGSTSYADSVKGRFTISADTSKNTAYLQMNSLRAEDTAVYYCARYSRYYYYAWAVGGYWGGLDYWGQGTLVTVSS
# VL: DIQMTQSPSSLSASVGDRVTITCRASQSVSSAVAWYQQKPGKAPKLLIYSASSLYSGVPSRFSGSRSGTDFTLTISSLQPEDFATYYCQQSSSSLITFGQGTKVEIKR
# B2: Fab36^R134A (antibody, V domains shown)
# VH: B1 VH
# VL: DIQMTQSPSSLSASVGDRVTITCRASQSVSSAVAWYQQKPGKAPKLLIYSASSLYSGVPSRFSGSRSGTDFTLTISSLQPEDFATYYCQQSSSSLITFGQGTKVEIKRTV
# Experiments:
# [1] = tested on: MRSA; format: cell-based, Staphylococcus aureus; settings: 12.5 μg/ml norfloxacin
# Method: To test the effects of peptides, overnight cultures of wild-type MRSA and MRSA^ΔnorA in TSB media were diluted 1:1,000 in TSB with varying concentrations of peptides, in the presence or the absence of norfloxacin (12.5 μg/ml). All the peptide concentrations contained equal amount of the DMSO vehicle. OD600nm was measured as a function of time in a BioScreen C device at 37° C. with shaking between measurements every 15 min. Three independent experiments were acquired; reported errors reflect the standard deviation among the independent experiments.
# [2] = molecular target: T1, S. aureus NorA with a carboxy-terminal decahistidine tag, purified (Staphylococcus aureus, UniProt Q5HHX4 1-388); test: MST
# T1 construct: not shown: carboxy-terminal decahistidine tag
# T1 sequence: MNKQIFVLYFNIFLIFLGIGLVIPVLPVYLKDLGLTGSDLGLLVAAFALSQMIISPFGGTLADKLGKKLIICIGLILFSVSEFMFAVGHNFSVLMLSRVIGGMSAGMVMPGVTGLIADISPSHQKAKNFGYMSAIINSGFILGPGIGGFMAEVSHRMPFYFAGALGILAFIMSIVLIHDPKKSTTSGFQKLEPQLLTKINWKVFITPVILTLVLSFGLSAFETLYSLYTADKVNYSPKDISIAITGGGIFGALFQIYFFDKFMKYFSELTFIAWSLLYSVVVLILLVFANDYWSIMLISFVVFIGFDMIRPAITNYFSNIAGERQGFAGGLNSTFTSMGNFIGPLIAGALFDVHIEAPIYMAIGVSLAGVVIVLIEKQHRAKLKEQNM
# [3] = molecular target: T2, NorA (Staphylococcus aureus, UniProt Q5HHX4); test: Microscale thermophoresis (MST) binding of fluorescently labelled Fabs to NorA in PMAL-C8 amphipol; set-up: species or system S. aureus; settings: labelled Fab 40 nM
# T2 construct: made in house; host or cells: C43 (DE3) E. coli
# T2 sequence (Q5HHX4 whole entry, looked up): T1 sequence
# Method: Amphipol-purified NorA underwent an additional round of SEC to remove free amphipol. Purified Fabs were prepared as described above and labelled with a primary amine-reactive 647 nm fluorophore (Nanotemper) according to the manufacturer's instructions. Efficient labelling was verified spectroscopically by measuring absorbance at 280 and 650 nm. Microscale thermophoresis (MST) experiments were performed on a Monolith NT.115 Pico instrument (Nanotemper Technologies). Labelled Fab at 40 nM final concentration was mixed with NorA in 20 mM Tris pH 7.0, 100 mM NaCl, and 0.025% (w/v) Tween-20. All samples were incubated for 15 min and loaded into premium glass capillaries. The normalized fluorescent signal (Fnorm) was plotted as a function of ligand concentration and fit with a non-linear sigmoidal regression model (GraphPad Prism) using a Hill slope equal to 1.0 to obtain the Kd values. The error in Kd values for Fab25 (1.2±0.7 μM) and Fab36 (140±20 nM) represent the average and standard deviation of two independent runs with three replicates per independent run. The error range in the Kd value for Fab36^W133A (2 to 4 μM) corresponds to the 95% confidence interval of the non-linear fit. […] MST binding experiments with Fab36^W133A and Fab36^R134A were collected with three replicates each.
molecule,measurement,setting,value
"NH2-YYYYAWEVGGYWR-CONH2 (H-YYYYAWEVGGYWR-NH2) [NPI-2, control peptide substituting a glutamate for the arginine residue in the tryptophan-arginine motif, reference compound]",growth arrest of MRSA in the presence of norfloxacin,[1],displayed no growth arrest of MRSA
B1,fold reduced binding affinity against Fab36,[2],> 100 fold
B2,Kd,[3],> 14 µM
